{"source": "patent US20080220446A1", "about": "“Method for Detecting and/or Removing Protein and/or Peptide Comprising a Cross-Beta Structure From an Aqueous Solution Comprising a Protein” (priority 2005, published 2008)", "molecules": {"B1": {"name": "recombinant β2GPI: recombinant human β2-glycoprotein I made using insect cells (protein)", "chain": "GRTCPKPDDLPFSTVVPLKTFYEPGEEITYSCKPGYVSRGGMRKFICPLTGLWPINTLKCTPRVCPFAGILENGAVRYTTFEYPNTISFSCNTGFYLNGADSAKCTEEGKWSPELPVCAPIICPPPSIPTFATLRVYKPSAGNNSLYRDTAVFECLPQHAMFGNDTITCTTHGNWTKLPECREVKCPFPSRPDNGFVNYPAKPTLYYKDKATFGCHDGYSLDGPEEIECTKLGNWSAMPSCKASCKVPVKKATVVYQGERVKIQEKFKNGMLHGDKVSFFCKNKEKKCSYTEDAQCIDGTIEVPKCFKEHSSLAFWKTDASDVKPC"}}, "key": {"tPA [1]": {"target": "T1, tPA (Homo sapiens, UniProt P00750)", "T1 sequence (P00750 36-562)": "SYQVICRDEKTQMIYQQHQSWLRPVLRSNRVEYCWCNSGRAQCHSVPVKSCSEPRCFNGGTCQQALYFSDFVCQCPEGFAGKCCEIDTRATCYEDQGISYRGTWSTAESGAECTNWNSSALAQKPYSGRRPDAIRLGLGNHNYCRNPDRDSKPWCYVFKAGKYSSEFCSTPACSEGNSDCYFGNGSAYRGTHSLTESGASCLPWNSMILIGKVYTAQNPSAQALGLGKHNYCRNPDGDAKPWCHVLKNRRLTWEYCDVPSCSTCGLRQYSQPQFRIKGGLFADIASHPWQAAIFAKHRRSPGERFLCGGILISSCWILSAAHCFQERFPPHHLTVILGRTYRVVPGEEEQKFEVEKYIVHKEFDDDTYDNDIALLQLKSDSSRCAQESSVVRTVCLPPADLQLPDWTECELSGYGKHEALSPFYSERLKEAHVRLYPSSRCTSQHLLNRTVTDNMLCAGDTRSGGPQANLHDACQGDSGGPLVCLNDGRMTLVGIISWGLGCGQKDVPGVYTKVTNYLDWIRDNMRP", "experiment": "Plasminogen-activation assay (tPA activation, S-2251)", "assay_type": "biochemical", "conditions": "β2GPI preparations, 100 μg ml^−1", "description": "Plasmin (Pls) activity was assayed as described^16. Peptides and proteins that were tested for their stimulatory ability were regularly used at 100 μg ml^−1. […] Chromogenic substrate S-2251 (Chromogenix, Instrumentation Laboratory SpA, Milano, Italy) was used to measure Pls activity. Conversion of zymogen factor XII (#233490, Calbiochem, EMD Biosciences, Inc., San Diego, Calif.) to proteolytically active factor XII (factor XIIa) was assayed by measurement of the conversion of chromogenic substrate Chromozym-PK (Roche Diagnostics, Almere, The Netherlands) by kallikrein. Chromozym-PK was used at a concentration of 0.3 mM. […] The conversion of Chromozym-PK was recorded kinetically at 37° C. for at least 60 minutes. […]\nFormulated protein therapeutics were obtained from the local hospital pharmacy and were used as supplied by the manufacturers. […] Enhancement in fluorescence of ThT and Congo red was measured with all formulated protein therapeutics. […]\nTo prepare structurally altered ovalbumin (OVA) with amyloid cross-β structures, purified OVA (Sigma, A-7641, lot 071k7094) was heated to 85° C. […] Native OVA (nOVA) and heat-denatured OVA (dOVA) were tested in the ThT fluorescence assay and in the Plg-activation assay. In the fluorescence assay and in the Plg-activation assay, 25 and 100 μg ml^−1 nOVA and dOVA were tested, respectively. […]"}, "tPA [2]": {"target": "T1, tPA", "experiment": "ELISA, binding of β2GPI to immobilized tPA", "description": "(§1) Binding of purified human factor XII from plasma (Calbiochem) or of purified recombinant human tPA to β2GPI purified from human plasma, or to recombinant human β2GPI was tested in an ELISA. Ten μg of factor XII or tPA in PBS was coated onto wells of a Costar 2595 ELISA plate (Cambridge, USA) and incubated with concentration series of the two β2GPI preparations. Binding of β2GPI was assessed with monoclonal antibody 2B2^22."}, "factor XII": {"target": "T2, factor XII (Homo sapiens, UniProt P00748)", "T2 construct": "purified human factor XII from plasma (Calbiochem); purchased Calbiochem; host or cells: human plasma", "T2 sequence (P00748 20-615)": "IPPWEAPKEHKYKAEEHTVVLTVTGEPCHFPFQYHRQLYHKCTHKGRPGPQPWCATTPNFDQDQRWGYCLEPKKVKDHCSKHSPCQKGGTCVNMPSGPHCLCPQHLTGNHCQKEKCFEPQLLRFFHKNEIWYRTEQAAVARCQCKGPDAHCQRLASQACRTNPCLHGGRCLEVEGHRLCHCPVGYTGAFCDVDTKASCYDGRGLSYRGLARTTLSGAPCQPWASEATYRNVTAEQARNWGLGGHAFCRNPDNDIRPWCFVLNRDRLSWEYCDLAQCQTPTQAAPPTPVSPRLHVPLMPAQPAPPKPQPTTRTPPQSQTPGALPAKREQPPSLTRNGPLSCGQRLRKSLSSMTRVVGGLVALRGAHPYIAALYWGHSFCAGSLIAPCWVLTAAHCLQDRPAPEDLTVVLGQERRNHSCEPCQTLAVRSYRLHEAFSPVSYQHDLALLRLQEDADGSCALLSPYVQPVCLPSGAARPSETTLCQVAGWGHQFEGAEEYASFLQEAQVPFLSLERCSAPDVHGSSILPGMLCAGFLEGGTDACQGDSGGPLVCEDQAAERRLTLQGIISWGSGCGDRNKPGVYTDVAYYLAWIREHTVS", "experiment": "ELISA, binding of β2GPI to immobilized factor XII", "description": "as §1"}}, "data": [{"molecule": "B1", "values": [{"measurement": "stimulation of tPA-mediated conversion of Plg to Pls", "setting": "tPA [1]", "result": "stimulate tPA-mediated conversion of Plg to Pls"}, {"measurement": "binding to tPA", "setting": "tPA [2]", "result": "bind"}, {"measurement": "binding to factor XII", "setting": "factor XII", "result": "bind"}]}]}
